The source of these data is patent US20160083466A1 (Regeneron, published 2016).

Usually Kd stands for the free concentration of one partner at which half of the binding sites on the other are occupied at equilibrium, for simple one-to-one binding. The term koff denotes the rate constant with which the complex falls apart. What is called kon is the second-order rate constant of association. The t½ is how long it takes for the measured level to halve.

For assay [1], the target named is T1, human IL-25 expressed with a C-terminal myc-myc-hexahistidine tag (human).
T1 construct: also called human IL-25-MMH; hIL-25-MMH
T1 chain: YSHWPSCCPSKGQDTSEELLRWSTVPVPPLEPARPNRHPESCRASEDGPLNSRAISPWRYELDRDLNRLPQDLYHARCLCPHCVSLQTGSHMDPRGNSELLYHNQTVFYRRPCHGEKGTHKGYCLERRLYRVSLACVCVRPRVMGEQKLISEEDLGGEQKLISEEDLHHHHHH
The experiment in a line: SPR Biacore, captured mAb, 25°C. In general terms: Surface plasmon resonance follows binding to a sensor surface in real time, without labels.
Protocol: (§1) Equilibrium dissociation constants (KD values) for IL-25 binding to purified anti-IL-25 antibodies were determined using a real-time surface plasmon resonance biosensor assay on a Biacore 4000 instrument (GE Healthcare). […] All the IL-25 reagents were expressed with a C-terminal myc-myc-hexahistidine tag (referred to herein as “IL-25-MMH”). […] Kinetic association (kₐ) and dissociation (kd) rate constants were determined by fitting the real-time sensorgrams to a 1:1 binding model using Scrubber 2.0c curve fitting software.

The target in assay [2] is T1, human IL-25 expressed with a C-terminal …. The experiment in a line: SPR Biacore, captured mAb, 37°C.
Assay [3] addresses T2, mouse IL-25 expressed with a C-terminal myc-myc-hexahistidine tag (mouse).
T2 construct: also called mouse IL-25-MMH; mIL-25-MMH
T2 chain: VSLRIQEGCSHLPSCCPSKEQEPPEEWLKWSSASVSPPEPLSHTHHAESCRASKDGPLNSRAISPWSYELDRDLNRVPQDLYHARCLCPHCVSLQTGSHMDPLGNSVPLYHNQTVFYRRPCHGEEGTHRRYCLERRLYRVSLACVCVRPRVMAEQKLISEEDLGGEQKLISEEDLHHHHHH
The experiment in a line: SPR Biacore, captured mAb, 25°C and 37°C.
Protocol: as §1

Assay [4] deals with T3, rat IL-25 expressed with a C-terminal myc-myc-hexahistidine tag (rat).
T3 construct: also called rat IL-25-MMH
T3 chain: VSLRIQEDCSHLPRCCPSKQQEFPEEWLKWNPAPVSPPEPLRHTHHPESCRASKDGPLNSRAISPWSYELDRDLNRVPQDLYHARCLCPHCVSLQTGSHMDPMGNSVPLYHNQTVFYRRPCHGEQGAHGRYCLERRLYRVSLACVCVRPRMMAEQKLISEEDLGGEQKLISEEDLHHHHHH
The experiment in a line: SPR Biacore, captured mAb, 25°C and 37°C.
Protocol: as §1

The target in assay [5] is T4, monkey IL-25 expressed with a C-terminal myc-myc-hexahistidine tag (M. fascicularis (cynomolgus monkey)).
T4 construct: also called monkey IL-25-MMH; MfIL-25-MMH
T4 chain: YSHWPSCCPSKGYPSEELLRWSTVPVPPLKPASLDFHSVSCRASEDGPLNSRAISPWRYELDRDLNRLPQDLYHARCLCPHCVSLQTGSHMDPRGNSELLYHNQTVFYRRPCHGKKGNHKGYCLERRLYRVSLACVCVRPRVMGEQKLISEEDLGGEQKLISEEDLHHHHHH
Nature of the assay: SPR Biacore, captured mAb, 25°C.
Protocol: as §1
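Wherever 100 nM Monkey IL-25-MMH Bound (RU) is given: Real-time surface plasmon resonance on a Biacore 4000, with IL-25-MMH binding to purified anti-IL-25 antibodies.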

B1: H4H10900P (antibody, human IgG4, V domains shown)
VH: QVQLQESGPGLVRPSETLSLICTVSGGSINSYYWSWIRQPPGKGLEWIGYIYYSGSTNYNPSLKSRVTISGDTSKNQFSLKLSSVTAADTAVYYCARGVIWNYELREFDYWGQGTLVTVSS
VL: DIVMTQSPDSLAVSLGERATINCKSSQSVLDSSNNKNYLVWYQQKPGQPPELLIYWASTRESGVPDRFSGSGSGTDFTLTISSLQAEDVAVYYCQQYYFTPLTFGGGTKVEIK
B1: in assay [1], the “100 nM Human IL-25-MMH Bound (RU)” value was found to be 43 RU, the equilibrium dissociation constant (Kd) was determined as 0.0158 nM, the koff was determined as 2.75e-05 s⁻¹ and the kon is 1.74e+06 M⁻¹ s⁻¹. This molecule also showed a t½ in assay [1] of 7.02 h. Besides, in assay [2], the “100 nM Human IL-25-MMH Bound (RU)” value worked out at 51 RU, the Kd turned out to be 0.035 nM, the koff worked out at 9.91e-05 s⁻¹ and the kon amounted to 2.83e+06 M⁻¹ s⁻¹. This molecule gave a t½ in assay [2] of 1.95 h. Moreover, in assay [3], the binding result is listed as “no binding (tested: 100 nM)”. Besides, in assay [4], the binding result was “no binding (tested: 100 nM)”. For the same molecule, in assay [5], the “100 nM Monkey IL-25-MMH Bound (RU)” value came out at 45 RU, the dissociation constant (Kd) turned out to be 0.00402 nM, the koff was found to be 1.18e-05 s⁻¹ and the kon was determined as 2.94e+06 M⁻¹ s⁻¹. The molecule also registered a t½ in assay [5] of 16.3 h.

B2: H4H10864P (antibody, human IgG4, V domains shown)
VH: QVQLQESGPGLVKPSETLSLTCTVSGGSISNYFWSWIRQPPGKGLEWIGFNYNSGSTNYNPSLKSRVTISVDTSKNQFSLKLSSVTAADTAVYYCARGYNWNYEIAWFDPWGQGTLVTVSS
VL: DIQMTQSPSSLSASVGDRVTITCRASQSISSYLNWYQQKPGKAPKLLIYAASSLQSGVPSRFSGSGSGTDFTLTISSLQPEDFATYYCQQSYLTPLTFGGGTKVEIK
Take B2: in assay [1], the “100 nM Human IL-25-MMH Bound (RU)” value came out at 75 RU, the Kd was found to be 0.0168 nM, the koff worked out at 4.51e-05 s⁻¹ and the kon came out at 2.68e+06 M⁻¹ s⁻¹. The t½ in assay [1] was 4.27 h. In addition, in assay [2], the “100 nM Human IL-25-MMH Bound (RU)” value was 94 RU, the Kd is 0.0526 nM, the koff turned out to be 0.000196 s⁻¹ and the on-rate (kon) was determined as 3.73e+06 M⁻¹ s⁻¹. The molecule further yielded a t½ in assay [2] of 0.983 h. In assay [3], the binding result is recorded as “no binding (tested: 100 nM)”. Moreover, the binding result in assay [4] was “no binding (tested: 100 nM)”. Moreover, in assay [5], the “100 nM Monkey IL-25-MMH Bound (RU)” value was 78 RU, the Kd was determined as 0.0128 nM, the koff worked out at 4.7e-05 s⁻¹ and the kon came out at 3.68e+06 M⁻¹ s⁻¹. In addition, the t½ in assay [5] was found to be 4.1 h.

B3: H4H10861P (antibody, human IgG4, V domains shown)
VH: QVQLQESGPGLVKPSETLSLTCTVSGASISNYYWSWIRQPPGKGLEWIGYIFYSGNTNYNPSLKSRVTISVDTSKNQFSLKLSSVTAADTAVYYCARVRFSDYELNWFDPWGQGTLVTVSS
VL: DIVMTQSPDSLAVFLGERATINCRSSQSVFLGSNNKNYLAWYQQKPGQPPKLLIYWASSRESGVPDRFSGSGSGTDFTLTINSLQAEDVAVYYCQQYFITPLTFGGGTKVEIK
Consider B3, for which, in assay [1], the “100 nM Human IL-25-MMH Bound (RU)” value stood at 47 RU, binding was put at a Kd of 0.0116 nM, the koff was 2.34e-05 s⁻¹ and the kon came to 2.01e+06 M⁻¹ s⁻¹. Also, in assay [1], the t½ came out at 8.22 h. Also, in assay [2], the “100 nM Human IL-25-MMH Bound (RU)” value amounted to 63 RU, the equilibrium dissociation constant (Kd) stood at 0.0268 nM, the koff turned out to be 7.8e-05 s⁻¹ and the kon came out at 2.91e+06 M⁻¹ s⁻¹. The t½ in assay [2] was found to be 2.47 h. Besides, the binding result in assay [3] is on record as “no binding (tested: 100 nM)”. Further, the binding result in assay [4] is “no binding (tested: 100 nM)”. In addition, in assay [5], the “100 nM Monkey IL-25-MMH Bound (RU)” value is 48 RU, the Kd worked out at 0.00454 nM, the koff came to 1.48e-05 s⁻¹ and the kon came to 3.26e+06 M⁻¹ s⁻¹. The same molecule yielded a t½ in assay [5] of 13 h.

B4: H4H10862P (antibody, human IgG4, V domains shown)
VH: QVQLQESGPGLVKPSETLSLTCTVSGGSISSYFWSWIRQAPGKGLEWIGFIDYSGSTNYNPSLKSRVTISVDTSKNQFSLKLNSVTAADTAVYYCARQEIINFELNWFDPWGQGTLVTVSS
VL: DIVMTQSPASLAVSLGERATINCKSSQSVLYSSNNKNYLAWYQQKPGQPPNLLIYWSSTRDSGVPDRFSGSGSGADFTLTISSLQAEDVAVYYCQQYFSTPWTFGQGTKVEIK
Regarding B4, in assay [1], the “100 nM Human IL-25-MMH Bound (RU)” value is 56 RU, binding was put at a Kd of 0.0344 nM, the koff was determined as 6.49e-05 s⁻¹ and the association rate constant (kon) was determined as 1.88e+06 M⁻¹ s⁻¹. The t½ in assay [1] amounted to 2.97 h. Further, in assay [2], the “100 nM Human IL-25-MMH Bound (RU)” value came to 72 RU, the Kd was determined as 0.0879 nM, the koff is 0.00021 s⁻¹ and the kon came to 2.39e+06 M⁻¹ s⁻¹. In assay [2], this molecule displayed a t½ of 0.917 h. Moreover, the binding result in assay [3] is on record as “no binding (tested: 100 nM)”. In assay [4], the binding result is “no binding (tested: 100 nM)”. For the same molecule, in assay [5], the “100 nM Monkey IL-25-MMH Bound (RU)” value is 58 RU, binding was put at a Kd of 0.0255 nM, the dissociation rate constant (koff) turned out to be 5.1e-05 s⁻¹ and the association rate constant (kon) came out at 2e+06 M⁻¹ s⁻¹. This molecule also registered a t½ in assay [5] of 3.77 h.

B5: H4H10901P (antibody, human IgG4, V domains shown)
VH: QLQLQESGPGLVRPSETLSLTCSVSSGSIRSSNYYWGWIRQPPGKGLEWIGNIYYSGNTFYNPSLKGRVTISVDTSKNQFSLKLSSVTATDTAVYYCARQGYSDYELNWFDPWGQGTLVTVSS
VL: DIVMTQSPDSLVLSLGERATFNCKSSQSVLDSSNNKNYLAWYQQKPGQPPKLLIYWASTRESGVPDRFSGSGSGTDFSLTISSLQAEDVALYYCQQFYNSPWTFGQGTKVEIK
B5: in assay [1], the “100 nM Human IL-25-MMH Bound (RU)” value amounted to 62 RU, the equilibrium dissociation constant (Kd) was determined as 0.0254 nM, the off-rate constant (koff) turned out to be 5.79e-05 s⁻¹ and the on-rate (kon) was determined as 2.28e+06 M⁻¹ s⁻¹. In assay [1], this molecule displayed a t½ of 3.32 h. Further, in assay [2], the “100 nM Human IL-25-MMH Bound (RU)” value worked out at 65 RU; the affinity, expressed as Kd, was 0.0651 nM; the koff worked out at 0.000208 s⁻¹; the kon amounted to 3.19e+06 M⁻¹ s⁻¹. The molecule also had a t½ in assay [2] of 0.933 h. The binding result in assay [3] is “no binding (tested: 100 nM)”. In assay [4], the binding result is reported as “no binding (tested: 100 nM)”. Further, in assay [5], the “100 nM Monkey IL-25-MMH Bound (RU)” value amounted to 64 RU, the Kd turned out to be 0.0116 nM, the off-rate constant (koff) was found to be 3.06e-05 s⁻¹ and the kon is 2.63e+06 M⁻¹ s⁻¹. The molecule also showed a t½ in assay [5] of 6.28 h.

B6: H4H10903P (antibody, human IgG4, V domains shown)
VH: QVQLQESGPGLVKPSETLSLTCTVSGGSINSYSWTWIRQPPGKGLEWIGNIYNSENTNYNPSLKSRVTISVDTSKSQVSLKLNSVTAADTAVYYCARTYNWNYEIGAMGVWGQGTTVTVSS
VL: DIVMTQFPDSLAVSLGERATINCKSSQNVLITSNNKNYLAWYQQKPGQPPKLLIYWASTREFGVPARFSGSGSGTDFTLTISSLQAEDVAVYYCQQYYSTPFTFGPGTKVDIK
Turning to B6, in assay [1], the “100 nM Human IL-25-MMH Bound (RU)” value came out at 54 RU, the equilibrium dissociation constant (Kd) is 0.0192 nM, the off-rate constant (koff) was 1.73e-05 s⁻¹ and the kon came out at 897000 M⁻¹ s⁻¹. Also, the t½ in assay [1] stood at 11.2 h. In assay [2], the “100 nM Human IL-25-MMH Bound (RU)” value is 65 RU, the dissociation constant (Kd) amounted to 0.0508 nM, the koff amounted to 7.75e-05 s⁻¹ and the kon was 1.53e+06 M⁻¹ s⁻¹. Further, the t½ in assay [2] was found to be 2.48 h. In addition, the binding result in assay [3] is listed as “no binding (tested: 100 nM)”. Further, in assay [4], the binding result was “no binding (tested: 100 nM)”. In assay [5], the “100 nM Monkey IL-25-MMH Bound (RU)” value came to 57 RU, the Kd was at most 0.00871 nM, the off-rate constant (koff) is at most 1e-05 s⁻¹ and the on-rate (kon) was determined as 1.15e+06 M⁻¹ s⁻¹. This molecule showed a t½ in assay [5] of 19.2 h.

B7: H4H10906P (antibody, human IgG4, V domains shown)
VH: QVQLQESGPGLVKPSETLSLTCTVSGGSISSYYWSWIRQPPGKGLEWIGFIYYSGSTNYNPSLKSRVTISVDTSKNQFSLKLSSVTAADTAVYYCARHDSDYELYGMDVWGQGTTVTVSS
VL: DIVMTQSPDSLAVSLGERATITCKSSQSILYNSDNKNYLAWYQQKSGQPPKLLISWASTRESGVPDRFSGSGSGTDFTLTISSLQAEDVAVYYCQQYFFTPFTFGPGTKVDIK
B7: in assay [1], the “100 nM Human IL-25-MMH Bound (RU)” value was determined as 61 RU, the equilibrium dissociation constant (Kd) was found to be 0.0264 nM, the koff was 4.32e-05 s⁻¹ and the kon turned out to be 1.64e+06 M⁻¹ s⁻¹. This molecule also gave a t½ in assay [1] of 4.47 h. Further, in assay [2], the “100 nM Human IL-25-MMH Bound (RU)” value was determined as 72 RU, the Kd is 0.0529 nM, the koff is 0.000154 s⁻¹ and the kon was 2.9e+06 M⁻¹ s⁻¹. Further, the t½ in assay [2] came out at 1.25 h. Moreover, in assay [3], the binding result is on record as “no binding (tested: 100 nM)”. The binding result in assay [4] is “no binding (tested: 100 nM)”. Besides, in assay [5], the “100 nM Monkey IL-25-MMH Bound (RU)” value was 61 RU, the dissociation constant (Kd) worked out at 0.0141 nM, the koff amounted to 2.95e-05 s⁻¹ and the kon stood at 2.09e+06 M⁻¹ s⁻¹. Besides, the t½ in assay [5] amounted to 6.52 h.
